Measurements reported in PMC8717925 (Nature structural & molecular biology, 2020).

T1: Dip1 (S. pombe WISH/DIP/SPIN90 family nucleation promoting factor) (S. pombe, UniProt O74771 1-374)
T1 sequence (looked up): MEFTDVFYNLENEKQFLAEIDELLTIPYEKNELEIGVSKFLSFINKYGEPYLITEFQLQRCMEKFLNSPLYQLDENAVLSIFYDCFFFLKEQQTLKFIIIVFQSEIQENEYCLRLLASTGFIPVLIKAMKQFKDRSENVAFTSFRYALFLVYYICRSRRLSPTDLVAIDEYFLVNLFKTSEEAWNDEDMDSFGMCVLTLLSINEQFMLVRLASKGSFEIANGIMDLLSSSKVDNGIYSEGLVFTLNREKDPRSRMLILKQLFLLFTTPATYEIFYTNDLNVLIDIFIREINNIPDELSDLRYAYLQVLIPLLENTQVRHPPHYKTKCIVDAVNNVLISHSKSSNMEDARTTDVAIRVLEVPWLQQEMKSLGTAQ

B1: ARPC2 subunit of S. pombe Arp2/3 complex (natural protein)
chain: MLSLDYNNIFIYELLTERFSSENPSSIDQVVTDFDGVTFHISTPEEKTKILISLSMKCYPELVNYGTLDLLKQIYGAYVHEPEMGYNFSILIDLQQLPATDEEKEQLAMSISMLKRNVLAAPFHRAFTKQAELADLARKDPENAPMLDKQATSQELMAIHYRDEETIVLWPEHDRVTVVFSTKFREETDRIFGKVFLQEFVDARRRPAIQTAPQVLFSYRDPPLEIRDIQGIQKGDDFGFVTFVLFERHFTPQNREDCISHIQVFRNTLHFHIKASKAYMHQRMRKRVADFQKVLNRAKPDVELERKTATGRSFVRA

Assays:
[1] = biological target: T1, Dip1 (S. pombe WISH/DIP/SPIN90 family …); assay: cryo-EM structure
[2] = biological target: B1; assay: cryo-EM structure

binding result [1]	binding result [2]	Binder
binds		B1
binds	binds	ARPC4 subunit of S. pombe Arp2/3 complex (natural protein) not shown
